This experiment concerns the target GST-(PreScission site)-CYK-4 aa 146–190, phosphorylated by PLK-1 (C. elegans). Nature of the experiment: pull-down.

With “ECT-2 aa 1–320 (ECT-2 BRCT module) (domain or fragment)”, the fold increase in binding against the unphosphorylated WT CYK-4 fragment stood at 4 fold.
